Laboratory results published in US20190345459A1 (YEDA RESEARCH AND DEVELOPMENT, published 2019).

Experiments:
[1] = target: T1, tetravalent scaffoldin ScafCA(CBM)TF (SEQ ID No. 5); assay: electrophoretic mobility on non-denaturing PAGE, equimolar enzymes and scaffoldin
T1 chain: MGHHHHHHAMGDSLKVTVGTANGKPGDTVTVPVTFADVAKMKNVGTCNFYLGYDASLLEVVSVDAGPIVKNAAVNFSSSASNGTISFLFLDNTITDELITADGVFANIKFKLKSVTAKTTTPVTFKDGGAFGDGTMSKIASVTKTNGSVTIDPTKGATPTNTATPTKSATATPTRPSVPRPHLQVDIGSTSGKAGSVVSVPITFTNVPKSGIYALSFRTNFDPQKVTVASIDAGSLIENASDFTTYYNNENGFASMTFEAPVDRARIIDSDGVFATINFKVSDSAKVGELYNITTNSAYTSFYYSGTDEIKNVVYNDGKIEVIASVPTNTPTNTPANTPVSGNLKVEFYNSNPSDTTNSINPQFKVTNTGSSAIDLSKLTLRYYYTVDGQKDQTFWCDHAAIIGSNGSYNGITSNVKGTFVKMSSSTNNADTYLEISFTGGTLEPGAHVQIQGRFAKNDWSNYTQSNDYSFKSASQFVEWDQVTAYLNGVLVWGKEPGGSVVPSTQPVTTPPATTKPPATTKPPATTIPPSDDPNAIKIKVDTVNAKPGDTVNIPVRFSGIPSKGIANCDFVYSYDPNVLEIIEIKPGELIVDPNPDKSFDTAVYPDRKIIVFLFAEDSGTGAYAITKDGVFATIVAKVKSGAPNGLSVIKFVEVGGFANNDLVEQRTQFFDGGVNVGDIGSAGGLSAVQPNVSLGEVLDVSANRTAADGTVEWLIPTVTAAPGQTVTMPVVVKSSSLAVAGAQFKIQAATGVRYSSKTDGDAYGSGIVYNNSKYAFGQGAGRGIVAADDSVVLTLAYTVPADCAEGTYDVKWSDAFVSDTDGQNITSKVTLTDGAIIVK

[2] = target: T2, C. thermocellum cohesin 3 from CipA (Clostridium thermocellum, UniProt Q06851 560-704); assay: affinity-based ELISA, cohesin-dockerin binding
T2 construct: domain: cohesin 3; also called cohesin T
T2 sequence: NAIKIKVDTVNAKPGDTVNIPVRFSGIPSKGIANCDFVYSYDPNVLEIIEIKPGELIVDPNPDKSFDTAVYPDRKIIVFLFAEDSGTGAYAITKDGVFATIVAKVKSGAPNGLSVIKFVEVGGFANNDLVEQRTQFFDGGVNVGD

B1: Xyn11V-a (SEQ ID No. 3) (enzyme)
chain: MHHHHHHDVVITSNQTGTHGGYNFEYWKDTGNGTMVLKDGGAFSCEWSNINNILFRKGFKYDETKTHDQLGYITVTYSCNYQPNGNSYLGVYGWTSNPLVEYYIIESWGTWRPPGATPKGTITVDGGTYEIYETTRVNQPSIKGTATFQQYWSVRTSKRTSGTISVTEHFKAWERLGMKMGKMYEVALVVEGYQSSGKADVTSMTITVGNAPSTSSPPGPTPEPTPRSAFSKIEAEEYNSLKSSTIQTIGTSDGGSGIGYIESGDYLVFNKINFGNGANSFKARVASGADTPTNIQLRLGSPTGTLIGTLTVASTGGWNNYEEKSCSITNTTGQHDLYLVFSGPVNIDYFIFDSKGVNPTPTPTSTTTPTPKFIYGDVDGNGSVRINDAVLIRDYVLGKINEFPYEYGMLAADVDGNGSIKINDAVLVRDYVLGKIFLFPVEEKEELEHHHHHH
B1: binds [1].

B2: t-48A (SEQ ID No. 4) (enzyme)
chain: MAHHHHHHAVESSSTGLGDLNGDGNINSSDLQALKRHLLGISPLTGEALLRADVNRSGKVDSTDYSVLKRYILRIITEVPGHDSAEVTVREIDPNTSSYDQAFLEQYEKIKDPASGYFREFNGLLVPYHSVETMIVEAPDHGHQTTSEAFSYYLWLEAYYGRVTGDWKPLHDAWESMETFIIPGTKDQPTNSAYNPNSPATYIPEQPNADGYPSPLMNNVPVGQDPLAQELSSTYGTNEIYGMHWLLDVDNVYGFGFCGDGTDDAPAYINTYQRGARESVWETIPHPSCDDFTHGGPNGYLDLFTDDQNYAKQWRYTNAPDADARAVQVMFWAHEWAKEQGKENEIAGLMDKASKMGDYLRYAMFDKYFKKIGNCVGATSCPGGQGKDSAHYLLSWYYSWGGSLDTSSAWAWRIGSSSSHQGYQNVLAAYALSQVPELQPDSPTGVQDWATSFDRQLEFLQWLQSAEGGIAGGATNSWKGSYDTPPTGLSQFYGMYYDWQPVWNDPPSNNWFGFQVWNMERVAQLYYVTGDARAEAILDKWVPWAIQHTDVDADNGGQNFQVPSDLEWSGQPDTWTGTYTGNPNLHVQVVSYSQDVGVTAALAKTLMYYAKRSGDTTALATAEGLLDALLAHRDSIGIATPEQPSWDRLDDPWDGSEGLYVPPGWSGTMPNGDRIEPGATFLSIRSFYKNDPLWPQVEAHLNDPQNVPAPIVERHRFWAQVEIATAFAAHDELFGAGAP
B2: binds [1].

B3: Xyn-c-Lac (SEQ ID No. 1), chimeric bifunctional xylanase-dockerin-laccase (enzyme)
chain: MGSSHHHHHHKNADSYAKKPHISALNAPQLDQRYKNEFTIGAAVEPYQLQNEKDVQMLKRHFNSIVAENVMKPISIQPEEGKFNFEQADRIVKFAKANGMDIRFHTLVWHSQVPQWFFLDKEGKPMVNETDPVKREQNKQLLLKRLETHIKTIVERYKDDIKYWDVVNEVVGDDGKLRNSPWYQIAGIDYIKVAFQAARKYGGDNIKLYMNDYNTEVEPKRTALYNLVKQLKEEGVPIDGIGHQSHIQIGWPSEAEIEKTINMFAALGLDNQITELDVSMYGWPPRAYPTYDAIPKQKFLDQAARYDRLFKLYEKLSDKISNVTFWGIADNHTWLDSRADVYYDANGNVVVDPNAPYAKVEKGKGKDAPFVFGPDYKVKPAYWAIIDHKSAGENLYFQGTSPVIVYGDYNNDGNVDALDFAGLKKYIMAADHAYVKNLDVNLDNEVNAFDLAILKKYLLGMVSKLPSQDPNSVTGTVVELAPGIHAGFTGRAGGVSGEPYATLNLGDHVGDDPAAVAENRRRAALGFGISPDRVVWMNQVHGATAVTVTGSGQAGDVDAVVTPEAGLALAVLVADCLPLLVADAAAGVIGAAHAGRPGMAAGVVPALVAEMARHGARPERCVALLGPAICGRCYEVPRDLQDRVARTVPEARCTTAEGTPGLDIRAGVTAQLTNLGVTNITHDSRCTRESADLFSYRRDATTGRFAGYVWRVP
notes: Recombinant, expressed in E. coli, His-tagged; also called xylanase-tagged laccase; bifunctional xylanase-laccase
B3: no binding [2].

B4: f-5A (SEQ ID No. 2) (enzyme)
chain: MAHHHHHHAPSPGTKLVPTWGDTNCDGVVNVADVVVLNRFLNDPTYSNITDQGKVNADVVDPQDKSGAAVDPAGVKLTVADSEAILKAIVELITLPQAVPGTQPGTGTPVERYGKVQVCGTQLCDEHGNPVQLRGMSTHGIQWFDHCLTDSSLDALAYDWKADIIRLSMYIQEDGYETNPRGFTDRMHQLIDMATARGLYVIVDWHILTPGDPHYNLDRAKTFFAEIAQRHASKTNVLYEIANEPNGVSWASIKSYAEEVIPVIRQRDPDSVIIVGTRGWSSLGVSEGSGPAEIAANPVNASNIMYAFHFYAASHRDNYLNALREASELFPVFVTEFGTETYTGDGANDFQMADRYIDLMAERKIGWTKWNYSDDFRSGAVFQPGTCASGGPWSGSSLKASGQWVRSKLQS
B4: binds [1].
